What was measured:
[1] = biological target: antibodies of human serum sample 16CDV61197; test: DAGS blocking; signal antigen m1 SS-ZIKA-NS1-wing
[2] = biological target: antibodies of human serum sample 16CDV61275; test: DAGS blocking; signal antigen m1 SS-ZIKA-NS1-wing
[3] = biological target: antibodies of human serum sample 16CDV61278; test: DAGS blocking; signal antigen m1 SS-ZIKA-NS1-wing
[4] = biological target: antibodies of human serum sample 16CDV61197; test: DAGS blocking; signal antigen m3 S-ZIKA-NS1-ß-ladder
[5] = biological target: antibodies of human serum sample 16CDV61275; test: as above
[6] = biological target: antibodies of human serum sample 16CDV61278; test: as above

B1: Dengue virus type 4 NS1 full length aa 1-352 (protein)
chain: DTGCAVSWSGKELKCGSGIFVIDNVHTWTEQYKFQPESPARLASAILNAHEDGVCGIRSTTRLENIMWKQITNELNYVLWEGGHDLTVVAGDVKGVLSKGKRALAPPVNDLKYSWKTWGKAKIFTPEAKNSTFLIDGPDTSECPNERRAWNFLEVEDYGFGMFTTNIWMKFREGSSEVCDHRLMSAAIKDQKAVHADMGYWIESSKNQTWQIEKASLIEVKTCLWPKTHTLWSNGVLESQMLIPKAYAGPFSQHNYRQGYATQTVGPWHLGKLEIDFGECPGTTVTIQEDCDHRGPSLRTTTASGKLVTQWCCRSCTMPPLRFLGEDGCWYGMEIRPLSEKEENMVKSQVSA
B1 was tested. Which Blocking [%] [1] did it give?
Its Blocking [%] is 0.891%.

And the Blocking [%] normalized to Zika [1]?
The Blocking [%] normalized to Zika was 1.2%.

What about the counts [1] of the same binder?
The counts was 2900 counts.

And the Blocking [%] [2]?
The Blocking [%] was 2.48%.

What about the Blocking [%] normalized to Zika [2] of the same binder?
Its Blocking [%] normalized to Zika is 3.3%.

And the counts [2]?
The counts was 3040 counts.

What about the Blocking [%] [3] of the same binder?
Its Blocking [%] is 4.5%.

What about the Blocking [%] normalized to Zika [3] of the same binder?
The Blocking [%] normalized to Zika was 4.9%.

And the counts [3]?
The counts was 2880 counts.

And the Blocking [%] [4]?
Its Blocking [%] is 31.6%.

And the Blocking [%] normalized to Zika [4]?
Its Blocking [%] normalized to Zika is 50.3%.

What about the counts [4] of the same binder?
The counts was 2320 counts.

And the Blocking [%] [5]?
Its Blocking [%] is 25.1%.

What about the Blocking [%] normalized to Zika [5] of the same binder?
Its Blocking [%] normalized to Zika is 27.3%.

And the counts [5]?
The counts was 2730 counts.

What about the Blocking [%] [6] of the same binder?
The Blocking [%] was 2.6%.

And the Blocking [%] normalized to Zika [6]?
Its Blocking [%] normalized to Zika is 3.7%.

And the counts [6]?
The counts was 2830 counts.

— patent publication US20220220158A1
